Laboratory results reported in article PMC3125984 (Journal of molecular biology, 2011).
Where two headings read alike, the source gives them in different places.

Assays:
[1] = target: T1, Mss116 core (Ser73-Tyr597) (Saccharomyces cerevisiae, UniProt P15424 73-597); experiment: FCS
T1 sequence: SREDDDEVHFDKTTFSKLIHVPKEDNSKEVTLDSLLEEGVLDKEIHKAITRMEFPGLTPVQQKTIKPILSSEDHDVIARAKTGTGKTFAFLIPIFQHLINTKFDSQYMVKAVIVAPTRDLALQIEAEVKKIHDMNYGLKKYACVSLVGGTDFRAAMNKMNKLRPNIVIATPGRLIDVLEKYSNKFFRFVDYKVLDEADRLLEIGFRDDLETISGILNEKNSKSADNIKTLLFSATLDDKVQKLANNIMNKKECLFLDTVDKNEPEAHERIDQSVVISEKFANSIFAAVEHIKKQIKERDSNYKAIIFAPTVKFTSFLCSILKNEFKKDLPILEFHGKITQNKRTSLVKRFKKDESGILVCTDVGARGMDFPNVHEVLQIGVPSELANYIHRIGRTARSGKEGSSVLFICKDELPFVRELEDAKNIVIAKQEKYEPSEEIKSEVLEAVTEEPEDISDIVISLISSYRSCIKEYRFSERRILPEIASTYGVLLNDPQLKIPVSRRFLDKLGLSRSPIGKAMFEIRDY

[2] = target: T1, Mss116 core (Ser73-Tyr597); experiment: FCS; remark: listed apart in the source
[3] = target: the molecule itself; experiment: fluorescence correlation spectroscopy

Binder: GCCUCGCUGCCCUUCGGGGCAGCGAGGC (structured_RNA) [28-mer hairpin RNA]
- Kd [1]: 122 ± 22 nM
- Kd [2]: 117 ± 21 nM

B1: Mss116 (truncated construct, Ser73 - Tyr597) (domain or fragment, Saccharomyces cerevisiae, UniProt P15424 73-597, looked up)
chain: T1 sequence
- binding result [3]: binds
